Test results reported in patent publication US20220411492A1 (QILU PHARMACEUTICAL, published 2022).
Numbering of substitutions follows the chain as printed.

B1: ch-299B2 (antibody, V domains shown)
VH: QVQLKQSGPELVRPGASVKLSCKTSGYIFTNYWIHWVKQRSGQGLEWVVRIYPGTGNTYYNEKFTGKATLTADKSSSTAYMQLSSLKYEDSAVYFCSREGYGKGNSMDYWGQGTSVTVSS
VL: DIVMTQSPSSLTVTAGEKVTMNCKSSQSLLNSGNQKNYLTWYQQKPGQPPKLLFYWASTRESGVPDRFTGSGSGTDFTLTISSVQAEDLAVYHCQNAYYYPYTFGGGTKLEMK
notes: also called chimeric antibody of clone 299B2
B2: ch-251H11 (antibody, V domains shown)
VH: QVQLKQSGAELVRPGASVKLSCKTSGYTFTTFWIHWIKQRSGQGLEWIAKIYPGTGYTYYNEKFKGKATLTADKSSSAAYMQLSSLKSEDSAVYFCAREGYGKGNAVDFWGQGSSVTVSS
VL: B1 VL with N22S, L30F, F54I, S82D, H93Y, A97D, Y99T, Y102S, K109N, M112I
notes: also called chimeric antibody of clone 251H11
B3: ch-59F9 (antibody, V domains shown)
VH: QVQLQQSGAELMKPGASVKLPCKASGYTLTGYWIEWLKQRPRHGLEWIGEILLGSGSIKYNVKFKDKATFTADTSSNTAYMQLNSLTTEDSAIYYCARKGLRGNSFDYWGQGTTLTVSS
VL: B1 VL with N22S, N37S, L52R, F54I, H93Y, A97D, Y102F, G106S, M112I
notes: also called chimeric antibody of clone 59F9
B4: ch-287F12 (antibody, V domains shown)
VH: QIQLVQSGPELKRPGETVRISCKASGFTFTTAGMHWVQKMAGKGLKWLGWTNTHSGEPKYAEDFKGRFAFSLDTSGSDAYLQIGNLKYEDAATYFCAKWGRGNALDYWGQGTSVTVSS
VL: B1 VL with N22T, F54I, S82N, S83T, H93Y, A97T, Y99S, Y102L, M112L, K113R
notes: also called chimeric antibody of clone 287F12
B5: ch-241F7 (antibody, V domains shown)
VH: EVQLQQSGPELEKPGASVKISCKASGYSFTAYNMNWVRQRNGKSLEWIGNIDPYYGGTNYNQKFKGKATLTVDKSSSTAYMQLKSLTSEDSAVYFCATVYYGNSLIYWGQGTLVTVSA
VL: B1 VL with N22S, F54I, S71T, H93Y, A97N, Y99F, Y102L, G106A, K109Q, M112L
notes: also called chimeric antibody of clone 241F7
B6: ch-253C4 (antibody, V domains shown)
VH: QVQLKQSGAELVRPGASVSLSCKTSGYIFTSYWIHWVKQRSGQGLEWIGRFYPGTGTAYYNENFEGKATLTADRSSSTAYMQLSSLKSDDSAVYFCTREGYGKGNAMDYWGQGTSVTVSS
VL: DIVMTQSPSSLTVTTGEKVTLSCKSSQSLLNSGNQKNYLTWYQQKSGQPPELLIYWASTRESGVPDRFTGSGSGTDFTLTVSSVQAEDLAVYYCQNDYYFPFTFGGGTKLEIK
notes: also called chimeric antibody of clone 253C4

biological target: T1, human Claudin 18.2 (hCLDN18.2) (human, UniProt P56856-2 1-261); assay: cell-based or functional assay

CDC EC50 [µg/mL] | CDC Maximum lysis (%) | Binder
0.124 | 95.5 | B1
0.359 | 97.1 | B2
0.091 | 94.7 | B3
0.141 | 96.3 | B4
0.099 | 95 | B5
0.038 | 95.2 | B6

biological target: T1, human Claudin 18.2 (hCLDN18.2); assay: FACS, HEK293-hCLDN18.2 cells
From the text: (§1) FACS was used to detect the binding of anti-CLDN18.2 chimeric antibodies to HEK293 cells stably transfected expressing hCLDN18.2 (HEK293-hCLDN18.2) and gastric cancer tumor tissue-derived cells naturally expressing hCLDN18.2 (PDX-hCLDN18.2).

EC50 [nM] | Mean maximum fluorescence intensity (Top MFI) [MFI] | Binder
1.52 | 10100 | B1
2.72 | 10800 | B2
2.41 | 9040 | B3
2.65 | 10900 | B4
3.02 | 12200 | B5
2.27 | 10300 | B6

biological target: T1, human Claudin 18.2 (hCLDN18.2); assay: cell-based or functional assay; remark: another data set of the same source

ADCC EC50 [µg/mL] | ADCC Maximum lysis (%) | Binder
0.047 | 33.5 | B1
0.024 | 38.8 | B2
0.023 | 29.4 | B3
0.017 | 35.5 | B4
0.027 | 36.6 | B5
0.036 | 35.7 | B6

biological target: T1, human Claudin 18.2 (hCLDN18.2); assay: FACS, PDX-hCLDN18.2 gastric cancer tumor tissue-derived cells
From the text: as §1

EC50 [nM] | Mean maximum fluorescence intensity (Top MFI) [MFI] | Binder
5.81 | 16300 | B1
96.2 | 19900 | B2
12.4 | 18100 | B3
16.8 | 17600 | B4
4.87 | 15200 | B5
9.73 | 15500 | B6

biological target: murine CLDN18.2 (mCLDN18.2) (murine) (UniProt P56857); assay: FACS, HEK293-mCLDN18.2 cells

EC50 [nM] | Mean maximum fluorescence intensity (Top MFI) [MFI] | Binder
0.758 | 13600 | B1
1.01 | 8590 | B2
1.22 | 11200 | B3
1.14 | 10200 | B4
1.16 | 10500 | B5
0.79 | 8330 | B6
